Target: T1, MBP-human TRIM25-Flag (human, UniProt Q14258 1-630)
T1 construct: human TRIM25
Experiment: pull-down
Conditions: both partners purified

T1 sequence (Q14258 whole entry): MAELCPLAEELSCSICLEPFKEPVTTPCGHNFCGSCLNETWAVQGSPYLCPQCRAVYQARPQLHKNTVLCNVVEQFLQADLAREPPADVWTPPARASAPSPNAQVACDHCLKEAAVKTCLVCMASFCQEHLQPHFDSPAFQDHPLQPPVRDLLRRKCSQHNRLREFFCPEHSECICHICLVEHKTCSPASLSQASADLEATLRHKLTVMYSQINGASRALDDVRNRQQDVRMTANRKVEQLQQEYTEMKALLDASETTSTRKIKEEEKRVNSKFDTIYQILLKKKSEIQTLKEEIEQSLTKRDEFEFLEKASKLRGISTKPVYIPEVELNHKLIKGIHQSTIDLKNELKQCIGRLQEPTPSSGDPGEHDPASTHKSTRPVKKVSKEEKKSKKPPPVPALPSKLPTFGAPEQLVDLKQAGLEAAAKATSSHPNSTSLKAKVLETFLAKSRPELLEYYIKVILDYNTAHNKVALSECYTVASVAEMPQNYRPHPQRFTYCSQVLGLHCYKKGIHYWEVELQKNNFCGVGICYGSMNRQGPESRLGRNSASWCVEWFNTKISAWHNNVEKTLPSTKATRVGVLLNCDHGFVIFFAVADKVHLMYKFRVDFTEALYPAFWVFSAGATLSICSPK

B1: Glutathione-S-transferase (GST)-NS1 fusion protein (PR8) (natural protein)
chain: MDPNTVSSFQVDCFLWHVRKRVADQELGDAPFLDRLRRDQKSLRGRGSTLGLDIETATRAGKQIVERILKEESDEALKMTMASVPASRYLTDMTLEEMSRDWSMLIPKQKVAGPLCIRMDQAIMDKNIILKANFSVIFDRLETLILLRAFTEEGAIVGEISPLPSLPGHTAEDVKNAVGVLIGGLEWNDNTVRVSETLQRFAWRSSNENGRPPLTPKQKREMAGTIRSEV
notes: source: bacteria, purified
binding result: binds
